Laboratory results as given in the DeepSol protein solubility set.

Test: soluble on expression in E. coli; label from the status in PepcDB or PDB records

Soluble on expression in E. coli, not soluble:
MGSDKIHHHHHHMAHPLSRIIDQLKREPSRTGSIVITVFGDAIVPRGGSVWLGTLLEFFESLDIDSGVVRTAMSRLAADGWLTREKVGRNSFYRLADKGHQTFEAATRHIYDPPPSDWTGRFELLLINGEDRDASREALRNAGFGSPLPGVWVAPSGVPVPDEAAGAIRLEVSAEDDSGRRLLSASWPLDRTADAYLKFMKTFEPLRTAIGRGTTLSDADAFTARILLIHHYRRVVLRDPLLPESLLPADWPGRAARELCGEIYRALLAPSEQWLDGHGTNEKGPLPAARKLLERRFGA
MGSDKIHHHHHHMAIKNVSIVYPNRFGGGIACLAVHVLTSHLNKYRDISANAYFIENYSKIKNSDAILITLQYENDYFNVVKIVKELKAQNPNAIFIAGGPCAISNPLPIQEFFDVFVVGEIEGTDTMYQLINGNFEIPGVYVPKTYNNEKIKRIYPKKLGIDDYPISQVTHESGAYGKAYLLEIGRGCIRNCKFCMAKCIYAPPRYRKIEDLKHLVDEGLKNTDADKVSLIAPSVSDYRYVLDLCAHISEKNVSISPSSLRADTITDELLEYLNLKTLTIAPEAGSEVLRKKIDKGITEENILNAVDIAKTHGISTVKLYYMVGFPDETEEDIEEIINLTKKIKDNVRKVDVSINPMVPKPHTPFEDFEFDMDSKTKIKYIEKSLRKIKVSVDFEKFNSMVAQTVLARGGSELSKVLNESRNTIELIKNVDLDNYINKIEEKPWDFIEI
MGSDKIHHHHHHMAIRSNHILVSRTDNIGDIVLTLPMVARLRQLNPKAKISFLCRAYAAPLVRFCTDIDEVIELENIADDPAGFLRKSGIDTVILAQPDRTLAQAAFRARVRHRIGNARQKIYLMLYCNRRVRFSKRTTEDHEAQINFRFLSPYGSRDIPTREQIPDLYHFDIPEDKAISDMQAPYAFNLVLHTKSNGHGREWPIEHYAALAELLLARRDVHLWLSGSAKEGEWLKANGGALLAKPNVTSLCGTQTLGQLTTFIHQADGLIASGTGPLHLSAAIGQRTLGLFPPTRPMHPGRWAALGKRAQNLVRDKSCRDCEKLETISCDCMVQLSPQSVLEIVEGWIRDKSAA
MGSDKIHHHHHHMAKEILVAYGVDIDAVAGWLGSYGGEDSPDDISRGLFAGEVGIPRLLKLFKKYHLPATWFSPGHSIETFSEQMKMIVDAGHEVGAHGYSHENPIAMTAKQEEDVLLKSVELIKDLTGKAPTGYVAPWWEFSNITNELLLKHGFKYDHSLMHNDFTPYYVRVGDSWSKIDYSLEAKDWMKPLIRGVETDLVEIPANWYLDDLPPMMFIKKSPNSFGFVSPHDIGQMWIDQFDWVYREMDYAVFSMTIHPDVSARPQVLLMHEKIIEHINKHEGVRWVTFNEIADDFLKRNPRKK
MGSDKIHHHHHHMAKFDLTTPWGRFKTYLHYLWNDHAYLRLGFSNAHWISPELVRANQPWPFQLAWWKKRGIKTIVNLRGGFDGSFYALEKDACERLGLNFVDFVITSREVPIRERVRGAKELFERIEYPALMHCKSGADRAGIMSVFYAHYRLGQPIREAMQQLGPRYLHIKHGNTGVLDYVFEQYLEKGEPKGLTFSDWVESDDYDPVEMKKTFRAGMLGKVLTDKILRRE
MGSDKIHHHHHHMAKIDFRNKINWRRRFRSPPRVETERDILRIFESDRGRIVNSPAIRRLQQKTQVFPLERNAAVRTRLTHSLEVQQVGRYIAKEVLSRLKELRLLEEYGLEELTGPFESVVEMACLMHDIGNPPFGHFGEAAINDWFRQRLAPGDALGQPLTDDRCEVQALRLHDGETSLNALRRKVRQDLCSFEGNAQGIRLVHTLMRMNLTWAQVGCILKYTRPAWWSEETPASHSYLMKKPGYYLAEEEYVARLRKELDLAPYNRFPLTWIMEAADDISYCVADLEDAVEKRIFSAEQLYQHLYDAWGSHEKGSLFSQVVENAWEKSRANYLKQSAEDQFFMYLRVNTLNKLVPYAARRFIDNLPAIFTGDFNHALLEDDSDCSQLLELYKNVAMKQVFSHPDVEQLELQGYRVISGLLDIYQPLLKLSLEDFSELVAQERVRRLPIASRLYQKLSTRHRLAYVEAVNKLARTAPEFALMEYYYRCRLIQDYISGMTDLYAWDEYRRLMAVE
MGSDKIHHHHHHMAKIESNDSHLRGILKDELYYQIPIYQRPYQWTEENCEKLLDDLFFNYEDDREGDYFCGSLVLIAISKDSKATTYDVVDGQQRLSTFILLAKVLADLYNDCLDPKNLEHLQEGWKDRHTERKRLSFNTIGSNAEYDFQDALEHFNDSQASKNKNNKNNYLKNAICLKDYLMKKEIKNINDFIEWLYSNVKFITIICPNIDKALRIFNVLNARGLPLNATDIFKGELLKHAKEHEREEFVSRWNALSQKCSDNDLTMETLFSWYNLSQSGNF
MGSDKIHHHHHHMAKLCHKPLHILFFRHSLLGRGGDKMVVCQANALARRGHQVTIRTATLATPFSLDDRIEINLTGSSSVAATLMDLFKGRFSFDLLIVDIIPLAVLAGIRFGRTKVIYYVQDWDVSYYRSLAFRSLIRLLYFVERSFLRIPVIVVSEHLLGKIGRTGIGATYVVENGIDLTLFNSKGRLHPAFAPGHIPTFLLFIRNDWRKGSDLALKVVKKLADRYPHAFGVVAVGNRPAIRPSQIDWIDKGFMDERQIADLMKQCDLFLYPSRHEGFGLMALEAFACGCLVVTTTAVGFAHDIENSLVAEVDDEQGLYSRLCCLLEKQIEIAPLVKKAEEFASEHPLELCMDRFCSVIEELNQ
MGSDKIHHHHHHMAKQLPDIGDYKYGFKDKDVSIFRAGRGLTKEIVEEISRMKEEPQWMLDFRLKSLDKFYEMPMPQWGGDLNDLDFDEITYYVKPSEKSEKSWDEVPDEIKATFDKLGIPEAEQKYLAGVSAQYESEVVYHNMKEDLEALGIVFKDTDSALKENEDIFREHFGKVIPPTDNKFAALNSAVWSGGSFIYVPKGVKVDTPLQAYFRINSENMGQFERTLIIVDEGAHVHYVEGCTAPVYTTNSLHSAVVEIIIKKDAYCRYTTIQNWANNVYNLVTKRAVCEENATMEWIDGNIGSKLTMKYPAVILKGEGARGLTLSIAIAGKGQHQDAGAKMIHLAPNTSSTIVSKSIAKHGGKVTYRGIVHFGPKAKNSRSNIECDTLIMDNQSTSDTIPYNEIKNDYVSLEHEAKVSKVSEEQLFYLMSRGISEQEATEMIVMGFIEPFTRELPMEYAVEMNRLIKFEMEGSIG
MGSDKIHHHHHHMALIEVQNLKKYFPVKQGPIDVLLRKPRKFVKAVDGVNFQIDEGKSLGLVGESGSGKTTTGRVILRLEEPTDGKIIFDGRDITKLSKEEMRKLRKEMQIIFQDPMASLNPYMRVGKAIEHALEIHGIGDRSSRKEMVLEMLRRVNLEPAEDIYRRYPRELSGGQRQRVVIARALILKPRLVVADEAVAMLDVSVRSQLLRLLQELRKEFNLTMLFITHDLATTKYVCDEIAVMYLGKIVEIGDFEDIYLNPKHPYTQALISAVPEPSLKKKKKFIPEGETPNPIDVPSGCRFHPRCPYRMDICMKEEPQLKAVEENHKVACHLYN
MGSDKIHHHHHHMALNKPKIVILGAGYGGLMTVTRLTKYVGPNDADITLVNKHNYHYETTWMHEASAGTLHHDRCRYQIKDVINQSRVNFVQDTVKAIKIDEKKVVLANGELQYDYLVIGLGAVPETFGIKGLKEYAFPIANINTSRLLREHIELQFATYNTEAEKRPDRLTIVVGGAGFTGIEFLGELAARVPELCKEYDVDRSLVRIICVEAAPTVLPGFDPELVDYAVHYLEENGVEFKIGTAVQECTPEGVRVGKKDEEPEQIKSQTVVWAAGVRGHPIVEEAGFENMRGRVKVNPDLRAPGHDNVFILGDSSLFMNEDTERPYPPTAQIAMQQGITVAKNLGRLIKGGELEEFKPDIKGTVASLGEHNAVGVVYGRKLKGTPASFMKKVIDNRSLFMIGGLGLTLKKGKFKFF
MGSDKIHHHHHHMANRLNQLLKQWLSQKDTQKWVLATIIETDGSSYRKAGAMMMINDLGQYFGLLSGGCLESDIMLQARRCWDSGRNRIVEYDMREEEDLAWKLGIGCGGMVRILLQPVDEANQYLQLDSLYALLESNQTAEYCQVINDQVPLNTLKTLTLKQAAPEQAKSIEGALKKADTDRKTETQQGVFKQYLKPAPHLAVFGGGVDARPVVAIATQLGWQVTLVDPRTSYARNGHFDNSVSVVRDAIESLEQNRWLQQIDMAIIMTHNIKLDAQSLALVQKSSAKYVGMLGPIHRTDRVLDLIPTTREQLVKPLANPVGLRLGGELPESIALSMLSEAHAFIEQQNGLSISGILRQ
MGSDKIHHHHHHMANSRKHLIYLVYGRQTYHQEALFSIASAFAHLRDGAAHGLTVRVYTDDPSPYAGLPVQVREVTAEELVAWCQPHGYHFRAKHVALRDALEEADQALLIDTDTFFHSSPLRLFDRIQPGSLLCNAIGARYGEHRNFPLYRDLSPYLFERGWADDEMHQLNSGVIGLPREEAKILDRSLELMDELYPIANGAYTLEEFVLAVAAHKRLELVGCTDLIHHYWSRKQLFRAKIQAWLCKHGSSLLSAAALDDTLKVTDRLPRPPRAKRLLYKLGTLPLPAPMRQFSIELLYGCHEYSNEFDRACGPVWWEKAATNAIERYPQEPIAEQIEDWLNHSLLRNLLGSRANEIRQHLRQRDLL
MGSDKIHHHHHHMAPASFSQITGQSVGKIGVLFLLLMVLWSANLCNSSDITPLSANRANVGQMVQAFTFDDLFKEDGPSSDLPQRVFRQTSSWRGFSQLEFAETIASPKHASKLRLRSELSNLGQLSPNVKWKLSARIDYDAIYDLSDFYSRQVRRDQRFELFLRENYLDFSIADFDVRVGRQHIVWGEMVGLFFADVVSAKDMREFVLPDFDILRIPQWAVRTEYSKNDFHADLIWIPFASLDEIGRPGADFYPFKLPVAAPVSFLKEDRSGRNVAHSNYGIRLSQLTNGWDVSAFYYHSLDATPTFHRISQPWEPLLFQARHGEIDQAGGTVTKDLGSAVLKGEFVYTHGRRFNVTRPTAADGLVRQDTIDYALGLDFTLPSDIRLNLQFFQRAYLNYDRDIFQDRLENGGSIFLQGDLWRDFQGQILLIHSFNRNEWMLRPRLTWNFARNWKLAAGADIFNGPPTGLFGRFDSSDRVYTELRFSF
MGSDKIHHHHHHMAPMKIGLILEGTYPYVTGGVSNWVHTLLTNLPEFEFEIYHLKAVTEPQTIKYKIPENVTAVHELNIFGDFESDSSQKANLESLERIVSQLSIERDIRSIVSFAIDFIRENAGKNVRKMLKTKGFWNILLKIYEEFFSERGLTEFYWMIMNLFLPVVNVLQFVPNRCDLFHVPSTGYASLVGMNGKFVHDVPLVITEHGIYHKEREREIILSTWVPDAYKPMWIELFRIISMIAYRVSDALTTLYRKNQIYQLELGADPEKMFIIPNGINVEEYDLPPEKHEGFVVGFVGRVARIKDLKTAIRAISIVKEVVGEKLTFLIIGPVDAEDYLAECKRLVRVLRLEDTVEFLGPQNVKEYYPKFDLLLLSSVSEGQPLVILEAMAAGVPIVATDVGACRDIIYDKDGQCGIVVPPKDHLSMSKAIIKLYEDKELRDTFSKNAKKVVQKYRVETMIEKYRNLYLSLTSKKTVSTV
MGSDKIHHHHHHMAQYSAEFKQAKVLVLGDVMLDRYWFGATNRISPEAPVPVVRVQENEERAGGAANVAMNIASLNVPVQLMGLIGQDETGSALSLLLEKQKIDCNFVALETHPTITKLRILSRHQQLLRLDFEEDFNNVDCKDLLAKLESAVKNYGALILSDYGKGTLKDVQKMIQIARKANVPVLIDPKGTDFERYRGATLLTPNMSEFEAVVGKCNTEEEIIEKGLKLISDIELTALLVTRSEKGMTLLRPNQEPYHLPTVAKEVFDVTGAGDTVISVLATALADGRSFEESCYLANVAAGIVVGKLGTSTVSTVELENAIHARPETGFGIMSEAELKDAVAQAKARGEKIVMTNGCFDILHPGHISYLENARKLGDRLIVAVNSDDSVKRLKGESRPINNLENRMAVLAGLASVDWLVPFTEDTPQRLIGEILPDLLVKGGDYKPEEIAGSKEVWANGGDVKVLNFENGCSTTNVIEKIKLLKD
